Source: doi:10.1101/2023.07.18.549521

Biological target: LC3B LIR docking site (LDS) mutant (F52A/L53A) (UniProt Q9GZQ8)
Assay: ITC

Kd: > 300 µM
Substance: tepsin LIR motif peptide (residues 185-193)
